Our source for the Kd values is article PMC1904107.

This test concerns the target caldesmon(302–564) (UniProt Q05682). As to the kind of experiment: fluorescence cross-correlation spectroscopy.

For orientation: Kd means the concentration at which binding is half-saturated. “CaM(1–149) (from UniProt P0DP23 1-149) (natural protein)”: the dissociation constant (Kd) was found to be 500 nM. That is a sub-micromolar value.
